Data on 2 molecules can be found in patent US8088892B2, “Inhibitors of proteins from the Rho-GEF family” (Centre National de la Recherche Scientifique (C.N.R.S.), priority 2002, dated 2012).

One experiment deals with T1, Full length Trio (RhoA) (Homo sapiens, UniProt O75962).
T1 construct: Full length Trio was introduced into the YEA; expressed in transfected cells; host or cells: yeast strain TAT7
Nature of the experiment: Yeast Exchange Assay (YEA), full length Trio on RhoA. Details: key: “+ +” represents a slight activation of the reporter gene; “+ + + +” represents a strong activation of the reporter gene; “−” represents no activation of the reporter gene. The conditions noted are these: +TRIPα (−TRIPα: −). The class given is cell-based. The text has this:
The wild type GTPase is fused to the LexA DNA binding domain (Matchmaker GAL4 two-hybrid, Clontech Laboratories, Inc., USA) and the effector to the […] (Matchmaker GAL4 two-hybrid, Clontech, Inc., USA). Under these conditions, no binding occurs in the TAT7 strain (De Toledo et al., 2000). Upon addition of a third plasmid expressing the GEF, the GTPase gets activated and binds to its effector, thus leading to the transactivation of the reporter gene LacZ.
Full length Trio was introduced into the YEA and tested for its ability to activate RhoA and RhoG respectively, in the presence or absence of TRIPα. The table below summarizes the effect of TRIPα on Trio as schematized in this Figure.
In order to better characterise the effect of TRIAPα on the Trio full length RhoGEF activity, the yeast exchange assay (YEA) was used, which is a quick and quantitative test derived from the classical two-hybrid system allowing to measure Rho-GEF activity and specificity (De Toledo et al., 2000). This functional assay is based on the fact that the GTPase binds to its effector only if it is activated by a RhoGEF. Briefly, yeasts are transformed with the GTPase fused to the LexA binding domain (LexA), and its effector to the GAL-4 Activating Domain (GAD), and with the adequate Rho-GEF partner in the yeast strain TAT7 (FIG. 7). […]

Experiment [1] deals with T2, TrioGEFD2 (DH2PH2, amino acids 1848-2298) (Homo sapiens, UniProt O75962).
T2 construct: TrioGEFD2 (DH2PH2, amino acids 1848-2298); expressed in transfected cells; host or cells: yeast strain EGY048
Description: Binding specificity of aptamers in yeast (two-hybrid, growth on selective medium). Details: key to Binding in yeast: +++^1 and +^1 represent respectively a full and a partial (see FIG. 1) binding capacity; +++^1 and +^1 represent respectively a full and a partial (see FIG. 1) binding capacity; −−^1 represents a lack of binding. The source says: (§1) Trx represents the thioredoxin protein with no inserted peptide.
In order to identify specific inhibitors of TrioGEFD2, a recently developed strategy was used, this strategy being derived from the yeast two hybrid system, where the cDNA library of preys has been replaced by a combinatorial library of short peptides (20 amino acids) in fusion with the bacterial protein thioredoxin A (Colas et al., 1996). This strategy has been successfully used to isolate specific inhibitors of the cyclin-dependent kinases (Cdks), the cell cycle transcription factor E2F, or the viral HPV16 E6 oncoprotein and HBEV core protein (Colas et al., 1996; Butz et al., 2001; Fabrizzio et al., 1999; Geyer et al., 2000). The TrioGEFD2 bait was constructed as follows: plasmid pMTHATrio1848-2298 (Bellanger et al., 1998) was digested with EcoRI/XhoI and the insert cloned in pEG202EcoRI/XhoI to generate the bait pEG202TroGEFD2. Yeast strain EGY048 (Colas et al., 1996) was transformed with pEG202TrioGEFD2 and subsequently with the library of Thioredoxin constrained aptamers according to standard procedures (Ito et al., 1983). After transformation, cells were allowed to recover for 4 hours in galactose containing medium before plating on selective galactose medium. Of the 2×10^6 screened colonies, those growing in the selective medium were recovered and retested for interaction. […]

A further experiment addresses T3, TrioGEFD1 (DH1PH1) (Homo sapiens, UniProt O75962).
T3 construct: TrioGEFD1 (a.a. 1232-1629); expressed in transfected cells; host or cells: yeast
Description: Binding specificity of aptamers in yeast. Details: key to Binding in yeast: +++^1 and +^1 represent respectively a full and a partial (see FIG. 1) binding capacity; +++^1 and +^1 represent respectively a full and a partial (see FIG. 1) binding capacity; −−^1 represents a lack of binding.
Excerpt: as §1
(§2) In order to identify specific inhibitors of TrioGEFD2, a recently developed strategy was used, this strategy being derived from the yeast two hybrid system, where the cDNA library of preys has been replaced by a combinatorial library of short peptides (20 amino acids) in fusion with the bacterial protein thioredoxin A (Colas et al., 1996). This strategy has been successfully used to isolate specific inhibitors of the cyclin-dependent kinases (Cdks), the cell cycle transcription factor E2F, or the viral HPV16 E6 oncoprotein and HBEV core protein (Colas et al., 1996; Butz et al., 2001; Fabrizzio et al., 1999; Geyer et al., 2000). The TrioGEFD2 bait was constructed as follows: plasmid pMTHATrio1848-2298 (Bellanger et al., 1998) was digested with EcoRI/XhoI and the insert cloned in pEG202EcoRI/XhoI to generate the bait pEG202TroGEFD2. Yeast strain EGY048 (Colas et al., 1996) was transformed with pEG202TrioGEFD2 and subsequently with the library of Thioredoxin constrained aptamers according to standard procedures (Ito et al., 1983). After transformation, cells were allowed to recover for 4 hours in galactose containing medium before plating on selective galactose medium. Of the 2×10^6 screened colonies, those growing in the selective medium were recovered and retested for interaction. […] Binding specificity was investigated by screening for interaction with the following baits: TrioDH2 (a.a. 1848-2096), TrioPH2 (a.a. 2107-2223), TrioGEFD1 (a.a. 1232-1629), Dbl (a.a. 498-826), Vav (ala. 172-598) (Zhang et al, 1994), GEFD2 domain of Kalirin (a.a. 1640-1980)(Penzes et al., 2001), p115RhoGEF (a.a. 391-870)(Wells et al, 2002) and PDZRhoGEF (a.a. 964-1362) (Fukuhara et al., 1999). None of these aptamers interacted with other RhoGEF members such as Dbl, Vav, and the RhoA-specific GEFs p115RhoGEF and PDZRhoGEF.

The target in another experiment is T4, GEFD2 domain of Kalirin (Rattus norvegicus, UniProt P97924).
T4 construct: GEFD2 domain of Kalirin (a.a. 1640-1980); expressed in transfected cells; host or cells: yeast
Nature of the experiment: Binding specificity of aptamers in yeast. More on the design: key to Binding in yeast: +++^1 and +^1 represent respectively a full and a partial (see FIG. 1) binding capacity; +++^1 and +^1 represent respectively a full and a partial (see FIG. 1) binding capacity; −−^1 represents a lack of binding.
Excerpt: as §1, §2

The target of a further experiment is T5, TrioDH2PH2L2051E (Homo sapiens, UniProt O75962, L2110E).
T5 construct: TrioGEFD2 (DH2PH2, amino acids 1848-2298); expressed in transfected cells; host or cells: yeast
Description: Binding specificity of aptamers in yeast. More on the design: key: +++^1 and +^1 represent respectively a full and a partial (see FIG. 1) binding capacity; +++^1 and +^1 represent respectively a full and a partial (see FIG. 1) binding capacity; −−^1 represents a lack of binding. The settings on record: RhoGEF TrioDH2PH2L2051E.

Entries after “also recorded” stand apart in the source; their conditions may differ.

As for “AREGADGAICGYNLATLVMLGPSERVFCPLCEPCSSDIYELM [TRIPα, 42-amino acid peptide corresponding to the variable region of TRIAPα]”, the “activation of the reporter gene by full length Trio, RhoA” value with Full length Trio (RhoA) is “−”.

B1: TRIAPα: aptamer of 154 amino acids: variable region of 42 amino acids inserted into the thioredoxin protein; tested as GST fusion (protein)
chain: MSDKIIHLTDDSFDTDVLKADGAILVDFWAEWCGPAREGADGAICGYNLATLVMLGPSERVFCPLCEPCSSDIYELMGPCKMIAPILDEIADEYQGKLTVAKLNIDQNPGTAPKYGIRGIPTLLLFKNGEVASATKVGALSKGQLKEFLDANLA
Regarding B1, the Binding in yeast result was “+++^1” in experiment [1] (RhoGEF TrioDH2PH2), “+^1” in the experiment with TrioGEFD1 (DH1PH1) (RhoGEF TrioDH1PH1), “+^1” with GEFD2 domain of Kalirin (RhoGEF KalirinDH2PH2) and “+++^1” with TrioDH2PH2L2051E. Further, the “Binding to TrioGEFD2 (DH2PH2) in yeast” value in experiment [1] (growth on selective medium) is given as “binding to TrioGEFD2”. In addition, the “Binding to TrioGEFD1 (DH1PH1) in yeast” value in the experiment with TrioGEFD1 (DH1PH1) (growth on selective medium) was “weakly interacts; also recorded: interacted weakly; also recorded: bound TrioGEFD1 in yeast”. Moreover, in the experiment with GEFD2 domain of Kalirin (growth on selective medium), the “Binding to the second RhoGEF domain of Kalirin in yeast” value is given as “weakly interacts; also recorded: interacted weakly”.
